# Measured values published in paper PMC8604303, “Polymerization of C9 enhances bacterial cell envelope damage and killing by membrane attack complex pores” (PLoS Pathogens, 2021).
# B1: wildtype C9 (C9wt) (natural protein)
# chain: not shown
# modifications: Cy5 at the C-terminus in the binding assays (GGGK-azide sortagged onto LPETGG, then DBCO-Cy5 by copper-free click chemistry)
# Molecular target: the molecule itself
# Assay: cell-based or functional assay
protein,measurement,value
B1,"bacterial viability (CFU) of C5b-8 labelled E. coli MG1655 with 100 nM C9, decrease",≥ 1000 fold
